From patent EP1073741B1
Where “and” joins values, the source holds several entries; their conditions need not be identical. Identical values can stand only once.

Legend:
[1] = target: feline CD80, surface expressed on feCD80/pSI transfected COS-7 cells (feline); assay: competitive cell-cell adhesion assay at 5x10^5 cells; huCTLA-4Ig pre-incubated with CD80 COS-7 cells, then added to CD28 COS-7 monolayer
[2] = target: feline CD28, surface expressed on CD28-pSI transfected COS-7 cells (feline); assay: cell-cell adhesion assay; calcein-labelled CD80 COS-7 cells on CD28 COS-7 monolayer; microplate fluorimeter

huCTLA-4Ig fusion protein (from UniProt P16410 38-161) (Fc fusion)
fold residual fluorescence against wells inhibited with soluble CD80 (close to the mock transfected control) [1]: 2 fold and 3 fold

feline CD80, surface expressed on feCD80/pSI transfected COS-7 cells (ligand)
fold fluorescence against wells with mock transfected adherent cells, at 1x10^6 cells [2]: 5 fold
